This note sets out measurements from patent US20110118447A1.

The target of test [1] is binding partner of C5A (XPA23). The test can be described thus: Biacore. (In general: SPR reads the build-up and loss of mass on a sensor chip optically.)
For test [2], the target named is binding partner (antigen) of C5A (XPA23). The test can be described thus: Biacore, K-off, fold vs original.

B1: C5A (XPA23) VH S52V (antibody, V domains shown)
VH: EVQLLESGGGLVQPGGSLRLSCAASGFTFSKYFMFWVRQAPGKGLEWVSVIVPSGGMTRYADSVKGRFTISRDNSKNTLYLQMNSLRAEDTAVYYCARVGYGGNSDYWGQGTLVTVSS
VL: DIQMTQSPSSVSASVGDRLTIICRASQDINRWLAWYQQTPGNAPKLLIHSATSLQSGVPSRFSGSGSGTDFTLTINSLQPEDFATYYCQQADSFPLTFGGGTKVEIK
Regarding B1, the fold difference in affinity vs original in test [1] and in test [2] was 0.04 fold each time.

B2: C5A (XPA23) VH P53W (antibody, V domains shown)
VH: EVQLLESGGGLVQPGGSLRLSCAASGFTFSKYFMFWVRQAPGKGLEWVSVISWSGGMTRYADSVKGRFTISRDNSKNTLYLQMNSLRAEDTAVYYCARVGYGGNSDYWGQGTLVTVSS
VL: DIQMTQSPSSVSASVGDRLTIICRASQDINRWLAWYQQTPGNAPKLLIHSATSLQSGVPSRFSGSGSGTDFTLTINSLQPEDFATYYCQQADSFPLTFGGGTKVEIK
Regarding B2, the fold affinity vs original in test [1] stood at 0.05 fold. Also, the fold difference in affinity vs original in test [2] amounted to 0.05 fold.

B3: C5A (XPA23) VH S54G (antibody, V domains shown)
VH: EVQLLESGGGLVQPGGSLRLSCAASGFTFSKYFMFWVRQAPGKGLEWVSVISPGGGMTRYADSVKGRFTISRDNSKNTLYLQMNSLRAEDTAVYYCARVGYGGNSDYWGQGTLVTVSS
VL: DIQMTQSPSSVSASVGDRLTIICRASQDINRWLAWYQQTPGNAPKLLIHSATSLQSGVPSRFSGSGSGTDFTLTINSLQPEDFATYYCQQADSFPLTFGGGTKVEIK
For the molecule B3, the fold difference in affinity vs original in test [1] and in test [2] was 1.43 fold in each case.

B4: C5A (XPA23) VH P53I (antibody, V domains shown)
VH: EVQLLESGGGLVQPGGSLRLSCAASGFTFSKYFMFWVRQAPGKGLEWVSVISISGGMTRYADSVKGRFTISRDNSKNTLYLQMNSLRAEDTAVYYCARVGYGGNSDYWGQGTLVTVSS
VL: DIQMTQSPSSVSASVGDRLTIICRASQDINRWLAWYQQTPGNAPKLLIHSATSLQSGVPSRFSGSGSGTDFTLTINSLQPEDFATYYCQQADSFPLTFGGGTKVEIK
Consider B4, for which the fold difference in affinity vs original in test [1] and in test [2] was 0.08 fold throughout.

B5: C5A (XPA23) VH P53A (antibody, V domains shown)
VH: EVQLLESGGGLVQPGGSLRLSCAASGFTFSKYFMFWVRQAPGKGLEWVSVISASGGMTRYADSVKGRFTISRDNSKNTLYLQMNSLRAEDTAVYYCARVGYGGNSDYWGQGTLVTVSS
VL: DIQMTQSPSSVSASVGDRLTIICRASQDINRWLAWYQQTPGNAPKLLIHSATSLQSGVPSRFSGSGSGTDFTLTINSLQPEDFATYYCQQADSFPLTFGGGTKVEIK
As for B5, the fold difference in affinity vs original in test [1] and in test [2] was 0.05 fold each time.

B6: C5A (XPA23) VH P53L (antibody, V domains shown)
VH: EVQLLESGGGLVQPGGSLRLSCAASGFTFSKYFMFWVRQAPGKGLEWVSVISLSGGMTRYADSVKGRFTISRDNSKNTLYLQMNSLRAEDTAVYYCARVGYGGNSDYWGQGTLVTVSS
VL: DIQMTQSPSSVSASVGDRLTIICRASQDINRWLAWYQQTPGNAPKLLIHSATSLQSGVPSRFSGSGSGTDFTLTINSLQPEDFATYYCQQADSFPLTFGGGTKVEIK
For the molecule B6, the fold difference in affinity vs original in test [1] and in test [2] was 0.04 fold throughout.

B7: C5A (XPA23) VH P53G (antibody, V domains shown)
VH: EVQLLESGGGLVQPGGSLRLSCAASGFTFSKYFMFWVRQAPGKGLEWVSVISGSGGMTRYADSVKGRFTISRDNSKNTLYLQMNSLRAEDTAVYYCARVGYGGNSDYWGQGTLVTVSS
VL: DIQMTQSPSSVSASVGDRLTIICRASQDINRWLAWYQQTPGNAPKLLIHSATSLQSGVPSRFSGSGSGTDFTLTINSLQPEDFATYYCQQADSFPLTFGGGTKVEIK
On to B7, for which the fold difference in affinity vs original in test [1] and in test [2] was 0.02 fold each time.

B8: C5A (XPA23) VH S52P (antibody, V domains shown)
VH: EVQLLESGGGLVQPGGSLRLSCAASGFTFSKYFMFWVRQAPGKGLEWVSVIPPSGGMTRYADSVKGRFTISRDNSKNTLYLQMNSLRAEDTAVYYCARVGYGGNSDYWGQGTLVTVSS
VL: DIQMTQSPSSVSASVGDRLTIICRASQDINRWLAWYQQTPGNAPKLLIHSATSLQSGVPSRFSGSGSGTDFTLTINSLQPEDFATYYCQQADSFPLTFGGGTKVEIK
For B8, the fold difference in affinity vs original in test [1] and in test [2] was 0.05 fold each time.

B9: C5A (XPA23) VH P53V (antibody, V domains shown)
VH: EVQLLESGGGLVQPGGSLRLSCAASGFTFSKYFMFWVRQAPGKGLEWVSVISVSGGMTRYADSVKGRFTISRDNSKNTLYLQMNSLRAEDTAVYYCARVGYGGNSDYWGQGTLVTVSS
VL: DIQMTQSPSSVSASVGDRLTIICRASQDINRWLAWYQQTPGNAPKLLIHSATSLQSGVPSRFSGSGSGTDFTLTINSLQPEDFATYYCQQADSFPLTFGGGTKVEIK
On to B9, for which the fold difference in affinity vs original in test [1] and in test [2] was 1.1 fold throughout.

B10: C5A (XPA23) VH S54I (antibody, V domains shown)
VH: EVQLLESGGGLVQPGGSLRLSCAASGFTFSKYFMFWVRQAPGKGLEWVSVISPIGGMTRYADSVKGRFTISRDNSKNTLYLQMNSLRAEDTAVYYCARVGYGGNSDYWGQGTLVTVSS
VL: DIQMTQSPSSVSASVGDRLTIICRASQDINRWLAWYQQTPGNAPKLLIHSATSLQSGVPSRFSGSGSGTDFTLTINSLQPEDFATYYCQQADSFPLTFGGGTKVEIK
As to B10, the fold difference in affinity vs original in test [1] and in test [2] was 0.86 fold each time.

B11: C5A (XPA23) VH S54A (antibody, V domains shown)
VH: EVQLLESGGGLVQPGGSLRLSCAASGFTFSKYFMFWVRQAPGKGLEWVSVISPAGGMTRYADSVKGRFTISRDNSKNTLYLQMNSLRAEDTAVYYCARVGYGGNSDYWGQGTLVTVSS
VL: DIQMTQSPSSVSASVGDRLTIICRASQDINRWLAWYQQTPGNAPKLLIHSATSLQSGVPSRFSGSGSGTDFTLTINSLQPEDFATYYCQQADSFPLTFGGGTKVEIK
As to B11, the fold difference in affinity vs original in test [1] and in test [2] was 1 fold each time.

B12: C5A (XPA23) VH S54V (antibody, V domains shown)
VH: EVQLLESGGGLVQPGGSLRLSCAASGFTFSKYFMFWVRQAPGKGLEWVSVISPVGGMTRYADSVKGRFTISRDNSKNTLYLQMNSLRAEDTAVYYCARVGYGGNSDYWGQGTLVTVSS
VL: DIQMTQSPSSVSASVGDRLTIICRASQDINRWLAWYQQTPGNAPKLLIHSATSLQSGVPSRFSGSGSGTDFTLTINSLQPEDFATYYCQQADSFPLTFGGGTKVEIK
As for B12, the fold difference in affinity vs original in test [1] and in test [2] was 1 fold each time.

B13: C5A (XPA23) VH P53F (antibody, V domains shown)
VH: EVQLLESGGGLVQPGGSLRLSCAASGFTFSKYFMFWVRQAPGKGLEWVSVISFSGGMTRYADSVKGRFTISRDNSKNTLYLQMNSLRAEDTAVYYCARVGYGGNSDYWGQGTLVTVSS
VL: DIQMTQSPSSVSASVGDRLTIICRASQDINRWLAWYQQTPGNAPKLLIHSATSLQSGVPSRFSGSGSGTDFTLTINSLQPEDFATYYCQQADSFPLTFGGGTKVEIK
As for B13, the fold affinity vs original in test [1] was 0.05 fold. The fold difference in affinity vs original in test [2] came to 0.05 fold.
